From article PMC3500689 come the findings set out here.

Assay [1] deals with GluA2 flip splice variant (R/G edited) (UniProt P19491).
In assay [2] the target is GluA2 flop splice variant (UniProt P19491).
Assay [3] has as its target GluA2 flip splice variant (R/G edited) (UniProt P19491). This is another data set of the same source.
Assay [4] has as its target GluA2, native in CA1 pyramidal cells (rat (endogenous in hippocampal slice cultures)) (UniProt P19491).

Where only a bound is given, the exact number is not on record here.

“GluA1 flip splice variant (from UniProt P19490-2 19-907) (receptor)”: the rectification index (g+10 / g-40) of I/V relationships with 100 uM intracellular spermine, HEK293T cells cotransfected at an A1/A2 ratio of 4:1; marker for heteromerization competence in assay [1] came to 0.1. The substance also came in with a rectification index of patches from HEK293 cells expressing A1i/A2o and γ-8 (threshold by which patches were chosen) in assay [2] of more than 0.7.
With “GluA1 flop splice variant (from UniProt P19490 19-907) (receptor)”, in assay [1], the rectification index (g+10 / g-40) of I/V relationships with 100 uM intracellular spermine, HEK293T cells cotransfected at an A1/A2 ratio of 4:1; marker for heteromerization competence came out at 0.7. In assay [3], the rectification index of patches from HEK293 cells expressing A1o/A2i and γ-8 (threshold by which patches were chosen) is more than 0.7.
For “GluA1, native in CA1 pyramidal cells (from UniProt P19490 19-907) (receptor)”, in assay [4], the percentage block of the peak glutamate current by 100 μM philanthotoxin 74 (selective for A1/A2 heteromers), CA1 patches, control slices, mean came to 95% and the percentage block of the peak glutamate current by 100 μM philanthotoxin 74 (selective for A1/A2 heteromers), CA1 patches, slices after 48 hr TTX, mean was 93.9%.
